This note sets out measurements from patent US20220396632A1 (VERSEAU THERAPEUTICS, published 2022).

The target of experiment [1] is T1, Biotin PSGL-1(42-62) E56A peptide (C-terminal Lys-biotin).
T1 peptide: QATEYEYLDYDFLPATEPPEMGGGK
In words: ELISA, streptavidin-bound Ala peptide. Background: ELISA stands for enzyme-linked immunosorbent assay.

Experiment [2] has as its target T2, Biotin PSGL-1(105-125) peptide (human, N-terminal acetyl; C-terminal Lys-biotin).
T2 peptide: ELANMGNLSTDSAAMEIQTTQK
Nature of the experiment: ELISA, streptavidin-bound peptide. How it is done: A typical ELISA experiment involved binding of a single concentration or serially diluted mAb in assay buffer (3% BSA in PBS containing 0.05% Tween®20, pH 7.4) onto BSA blocked high binding microtiter plate half-wells (Corning Cat. #3690), which contained PSGL-1 protein or streptavidin-immobilized biotin peptide. After incubation for 45 min. at 37° C., the plate was washed 3 times with wash buffer (PBS containing 0.05% Tween®20, pH 7.4), and an appropriate HRP-conjugated secondary antibody added (25 ul/well) (HRP goat anti-mouse or anti-human IgG). After 45 min. incubation at 37° C., the plate was washed and antibody bound to plate-immobilized target was determined at A450 nm using HRP substrate (3,3′5,5′-tetramethylbenzidine (TMB)). For each antibody, duplicate values were averaged and assay background subtracted.

Experiment [3] deals with T3, PSGL-1 endogenously expressed on HL-60 cells (UniProt Q14242 42-412).
T3 construct: whole, on cells
T3 sequence (looked up): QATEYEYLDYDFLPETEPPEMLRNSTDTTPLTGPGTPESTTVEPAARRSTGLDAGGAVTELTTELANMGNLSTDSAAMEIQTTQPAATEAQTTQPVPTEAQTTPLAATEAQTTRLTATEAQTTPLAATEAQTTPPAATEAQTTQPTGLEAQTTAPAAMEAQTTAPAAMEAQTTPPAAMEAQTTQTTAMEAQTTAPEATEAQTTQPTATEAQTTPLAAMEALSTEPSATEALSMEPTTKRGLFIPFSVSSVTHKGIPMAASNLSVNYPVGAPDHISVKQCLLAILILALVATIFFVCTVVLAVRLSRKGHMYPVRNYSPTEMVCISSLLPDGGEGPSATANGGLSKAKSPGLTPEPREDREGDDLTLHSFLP
Nature of the experiment: flow cytometry on HL-60 cells. The protocol: A typical flow cytometry assay was performed by resuspending HL-60 cells in FACS buffer (5% FBS and 0.05% Sodium Azide in PBS, pH 7.2) on ice, pelleting cells by centrifugation at 500×g for 3 min, washing cells with FACS buffer, and then blocking Fc receptors on the cells with Fc block (human TruStain FcX™, BioLegend Cat. #422302) on ice for 10 min. After washing, 50,000 cells/50 ul in FACS buffer was added to each well of a 96-well round bottomed plate (Costar, Cat. #3797), and 50 ul of serially diluted (0.06 nM-1.0 uM) test or isotype control antibody was added into duplicate wells. The plate was covered and incubated on ice for 1 h. After washing, Phycoerythrin (PE) conjugated anti-human IgG secondary antibody (Abcam; Cat. #ab99825) was added to each well and the plate incubated in the dark on ice for 30 min. After washing, the cells were fixed (1% paraformaldhyde).
A general note: Flow cytometry measures light scatter and fluorescence of single cells or particles in a stream.

The target of experiment [4] is T4, Biotin PSGL-1(42-62) peptide, unmodified (human, C-terminal Lys-biotin).
T4 construct: Residues 42-62 followed by GGGK-biotin; also called WT; wild-type
T4 peptide: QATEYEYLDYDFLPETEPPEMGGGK
Nature of the experiment: capture ELISA; against 3 x sY peptide. The essentials:
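Direct format: anti-PSGL-1 mAb at a single concentration (2–500 nM) or serially diluted (0.002–100 nM) on immobilized target, detected with HRP anti-IgG and TMB at A450; 45 min steps at 37° C. Capture format: coated mAb (3 ug/mL) binds biotinylated unmodified or sulfotyrosine peptide (3 nM–3 uM), detected with HRP-streptavidin.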

In experiment [5] the target is T5, Recombinant human PSGL-1(ECD)-hFc1 (R&D Systems, Cat. 3345-PS) (human, UniProt Q14242 42-305).
T5 construct: Bought; Gln42-Val295 counted on AAC50061; also called PSGL-1-Fc; PSGL-1-hFc1 chimera; not shown: human IgG1 Fc, Pro100-Lys330
T5 sequence: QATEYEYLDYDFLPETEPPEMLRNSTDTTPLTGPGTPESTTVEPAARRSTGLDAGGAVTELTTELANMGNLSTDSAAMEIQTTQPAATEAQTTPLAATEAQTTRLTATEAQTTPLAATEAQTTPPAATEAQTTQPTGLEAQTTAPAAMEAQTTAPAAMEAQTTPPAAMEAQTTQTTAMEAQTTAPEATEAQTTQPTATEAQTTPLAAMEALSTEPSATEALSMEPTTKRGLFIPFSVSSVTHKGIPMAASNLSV
Nature of the experiment: ELISA, plate-bound target. How it is done: Two ELISA methods were performed. One procedure detected mAb binding to its plate-immobilized target and the other measured the immobilized antibody's ability to capture biotinylated PSGL-1₄₂₋₆₂. […] The plate was incubated for 45 min at 37° C. Plates were washed 3 times with wash buffer (PBS containing 0.05% tween 20, pH 7.4) and a single concentration (2 to 500 nM) or serially diluted (0.002-100 nM) anti-PSGL-1 mAb was added (25 ul/well) in assay buffer into appropriate wells. The plate was incubated for 45 min at 37° C., washed 3 times, and an appropriate HRP-conjugated secondary antibody added (25 ul/well) (HRP goat anti-mouse or anti-human IgG). After 45 min incubation at 37° C., the plate was washed, and antibody bound to plate-immobilized target was determined at A450 nm using HRP substrate (3,3′,5,5′-etramethylbenzidine (TMB)). For each antibody, duplicate values were averaged and assay background was subtracted. Except for the following, ELISAs involving plate-immobilized mAb capturing of biotinylated PSGL-1₄₂₋₆₂ peptides was performed in the same manner as described above: 3 ug/mL/25 ul per well of mAb was coated directly onto microtiter plate wells; biotinylated unmodified or sulfotyrosine PSGL-1₄₂₋₆₂ was serially diluted (3 nM-3 uM) into appropriate wells, and antibody-bound peptide was detected using HRP-streptavidin (Jackson Immunoresearch, Cat. #016-030-084).

Experiment [6] has as its target T6, Biotin sY51 PSGL-1(42-62) peptide (human, sulfotyrosine at Y51; C-terminal Lys-biotin).
T6 construct: also called Y51(SO3) PSGL-1(42-62)
T6 peptide: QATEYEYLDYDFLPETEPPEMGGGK
Nature of the experiment: ELISA, plate-bound peptide.

For experiment [7], the target named is T7, Biotin PSGL-1(42-62) D50A peptide (C-terminal Lys-biotin).
T7 peptide: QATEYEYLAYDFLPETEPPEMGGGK
In words: ELISA, streptavidin-bound Ala peptide.

Experiment [8] has as its target T8, Biotin PSGL-1(42-62) Y46A peptide (C-terminal Lys-biotin).
T8 peptide: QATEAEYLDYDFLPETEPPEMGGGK
In words: ELISA, streptavidin-bound Ala peptide.

Experiment [9] deals with T9, Biotin PSGL-1(42-62) E45A peptide (C-terminal Lys-biotin).
T9 peptide: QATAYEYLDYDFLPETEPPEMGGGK
In words: ELISA, streptavidin-bound Ala peptide.

The next experiment deals with T10, M62A (C-terminal Lys-biotin).
T10 construct: alanine-scan peptide; also called Biotin PSGL-1(42-62) M62A peptide; 62M
T10 peptide: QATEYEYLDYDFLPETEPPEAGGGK
In words: alanine-scan ELISA, streptavidin-immobilized biotin peptide [cont.].

Bounds are passed on as bounds.

A word on the EC50: it is the concentration needed to bring the measured effect to its halfway point.

B1: 43B6 (antibody, V domains shown)
VH: EVQLQQSGPDLVKPGALVKISCKASGYSFTAYYIHWVKQSHGKSLEWIGRVNPNTGGTSYNPKFKGKAILNVDKSSSTAYMELRSLTSEDSAVYYCARSGSPYYRYDDWGQGTTLTVSS
VL: ENVLTQSPAIMSASPGEKVTMTCRASSTVNSTYLHWFQQKSGASPKLWIYGSSNLASGVPARFSGSGSGTSYSLTISSVEAEDAATYYCQQYSGYPLTFGAGTTLELK
notes: Control anti-PSGL-1 mAb, recombinant; only variable domains given; also called 43B3
B1 registered an EC50 in experiment [1] of 4.25 nM.

B2: 16E17 (antibody, V domains shown)
VH: QIQLVQSGPELKKPGETVKISCKASGYAFTTYGMSWVKQAPGKGLKWMGWINTYSGVPKYADDFKGRFAFSLETSASTAYLHINNLKNEDTATYFCGRHYYGSSYFDYWGQGTTLTVSS
VL: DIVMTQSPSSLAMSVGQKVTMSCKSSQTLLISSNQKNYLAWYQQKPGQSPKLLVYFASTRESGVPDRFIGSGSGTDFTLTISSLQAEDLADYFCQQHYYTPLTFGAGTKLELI
notes: From mouse immunisation; only variable domains given
On to B2, for which the “fold weaker binding than to PSGL-1(ECD)-hFc1” value in experiment [2] was around 20 fold.

B3: 19L04 (antibody, IgG4, V domains shown)
VH: QIQLVQSGPELKKPGETVKISCKASGYTFTTYGMSWVKQAPGKGLKWMGWINTYSGVPTYADDFKGRFAFSLETSASTAYLQINNLKIEDTATYFCARHYYGSHYFDYWGQGTTLTVSS
VL: DIMMTQSPSSLAMSVGQKVTLRCKSSQSLLNSSNQKNYLAWYQQKPGQSPKLLVYFASTRESGVPVRFIGSGSGTDFTLTISSMQAEDLADYFCQQHYFSPLTFGAGTKLELK
notes: as for B2
In the case of B3, the EC50 in [3] came to 2 nM.

B4: 20I15 (antibody, V domains shown)
VH: EVKLVESGGGLVQPGGSLSLSCAASGFTFTDYYMSWVRQPPGKALEWLGFIRNKANGYTTEYSASVKGRFTISRDNSQSILYLQMNALRAEDSATYYCARTYLRRGYFDVWGTGTTVTVSS
VL: DIVLTQSPASLAVSLGQRATISCRASKSVSTSGYSYMHWFQQKPGQPPKLLIYLASNLESGVPARFSGSGSGTDFTLNIHPVEEEDAATYYCQHSRELPLTFGAGTKLELK
notes: From mouse immunisation; only variable domains given; also called 20115
As to B4, the “EC50/EC50 3x(SO3)Y” value in experiment [4] was around 10 fold. Further, the results for the EC50 in experiment [3] and in experiment [5] were 1.4 nM and 0.26 nM, respectively. The “fold weaker binding than to the peptide with all 3 sulfated tyrosines” value in [6] is around 300 fold.

B5: 18F02 (antibody, V domains shown)
VH: QVQLQQPGAELVKPGASVKLSCKASGYTFTSYWMHWVKQRPGQGLEWIGMIHPNSGRTNYNEKFKSKATLTVDKSSSTAYMQLSSLTSEDSAVYYCARSDYWGQGTTLTVSS
VL: DIVMTQAAFSNPVTLGTSASISCRSSKSLLHSDGITYLYWFLQRPGQSPQLLIYRMSNLASGVPDRFSGSGSGTDFTLRISRVEAEDVGVYYCAQMLEFPRTFGGGTKLEIK
notes: as for B2
In turn, B5 showed an EC50 in experiment [7] of 4.27 nM.

B6: 16L15 (antibody, V domains shown)
VH: DVKLVESGGGLVKLGGSLKLSCAASGFTFSSYYMSWVRQTPEKRLEWVATISNGGGSTYYPDSVKDRFTISRDNAKNTLYLQMSSLNSEDTAVYYCAKPLYYSNPWFAYWGQGTLVTVSA
VL: DVLLTQTPLSLPVSLGDQASISCRSSQSIVHSNGNTYLEWYLQKPGQSPKLLIYKVSNRFSGVPDRFSGSGSGTDFTLKISRVEAEDLGVYYCFQGSHVPRTFGGGTKLEIK
notes: as for B2
For B6, the EC50 in experiment [8] was found to be 4.44 nM; in experiment [9] it was 5.34 nM.

B7: 9F9 (antibody, V domains shown)
VH: EVQLVETGGGLVQPKGSLKLSCAASGFTFNTNAMNWVRQAPGKGLEWVARIRSKSNNYATYYADSVKDRFTISRDDTQSMIYLQMNNLKTEDTGMYYCVRGGSYWYFDVWGAGTTVTVSS
VL: DVLMTQTPLSLPVSLGDQASISCRSSQSIVNSNGNTYLEWYLQKPGQSPKLLIYKVSNRFSGVPDRFSGSGSGTDFTLKISRVEAEDLGVYYCFQGSHVPWTFGGGTKLEIK
notes: Control anti-PSGL-1 mAb, recombinant; only variable domains given; also called 9F6
As to B7, in the experiment with M62A, the binding result was “binds”.

B8: 03D07 (antibody, IgG4, V domains shown)
VH: EVKLLESGGGLVQPGGSLRLSCAASGFTFSSYALSWVRQAPGKGLEWVSAISGSGGNTYYADSVKGRFTISRDNSKNTLYLQMNSLRAEDTAVYYCAKVVGATNYWGQGTLVTVSS
VL: DIVMTQTPLSLPVTLGQPASISCRSSQSLVYSDGHTYLSWFHQRPGQSPRRLIYKVSIRDSGVPDRFSGSGSGTDFTLKISRVEAEDVGVYYCMQRLQIPLTFGGGTKVEIK
As for B8, in experiment [4], the “EC50/EC50 3x(SO3)Y” value was above 100 fold.
